From the supplement of paper PMC7125110
± gives the standard error. Variants at the floor of the assay were thinned out.

B1: glmS ribozyme (parent)
chain: AUAAAAGCGCCAGAACUACAGAAAUGUAGUUGACGAGGAGGAGGUUUAUCGAAUUUUCGGCGGAUGCCUCCAAA

Columns and labels:
Settings in all cases: with glucosamine-6-phosphate
glucosamine-6-phosphate [1] = variants of: B1; experiment: self-cleavage kobs at 40 uM GlcN6P; higher = faster cleavage; RNA array
Summary of the method: (§1)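 Using a hybridised Cy3 probe at 37 °C, barcoded ribozyme variants transcribed in situ by E. coli RNA polymerase on sequenced MiSeq chips were monitored across tiles imaged over ~14 h. The flow contained glucosamine-6-phosphate from 40 μM to 10 mM in HEPES/KCl/Mg(OAc)2 buffer. Signals were normalised to baseline and to non-cleaving reference variants before per-tile medians were fit to one- or two-exponential decays to yield kobs. Weighted Michaelis–Menten fits across concentrations gave kcat and KM.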

glucosamine-6-phosphate [2] = variants of: B1; experiment: self-cleavage kobs at 160 uM GlcN6P; higher = faster cleavage; RNA array
Summary of the method: as §1

glucosamine-6-phosphate [3] = variants of: B1; experiment: self-cleavage kobs at 640 uM GlcN6P; higher = faster cleavage; RNA array
Summary of the method: as §1

glucosamine-6-phosphate [4] = variants of: B1; experiment: self-cleavage kobs at 2500 uM GlcN6P; higher = faster cleavage; RNA array
Summary of the method: as §1

glucosamine-6-phosphate [5] = variants of: B1; experiment: self-cleavage kobs at 10000 uM GlcN6P; higher = faster cleavage; RNA array
Summary of the method: as §1

Variant | self-cleavage kobs at 40 uM GlcN6P (glucosamine-6-phosphate [1]) [s⁻¹] | self-cleavage kobs at 160 uM GlcN6P (glucosamine-6-phosphate [2]) [s⁻¹] | self-cleavage kobs at 640 uM GlcN6P (glucosamine-6-phosphate [3]) [s⁻¹] | self-cleavage kobs at 2500 uM GlcN6P (glucosamine-6-phosphate [4]) [s⁻¹] | self-cleavage kobs at 10000 uM GlcN6P (glucosamine-6-phosphate [5]) [s⁻¹]
G9U A42U | < 1e-05 | < 1e-05 | < 1e-05 | < 1e-05 | 
C11U U47A A52C | < 1e-05 |  |  |  | 
C10U G43U | < 1e-05 | < 1e-05 | < 1e-05 | < 1e-05 | < 1e-05
G9A A53C | < 1e-05 | < 1e-05 | < 1e-05 | < 1e-05 | < 1e-05
C8U U30C | < 1e-05 | < 1e-05 | < 1e-05 | < 1e-05 | < 1e-05
C10U G40U U49A | < 1e-05 |  | < 1e-05 |  | 
G9U G29A U30A C67U | < 1e-05 |  |  |  | 
G9A G13C U45G U57A | < 1e-05 |  |  |  | < 1e-05
A12G G38A G66U | < 1e-05 | < 1e-05 | < 1e-05 |  | < 1e-05
G9A U47C G51U G63A | < 1e-05 |  |  | < 1e-05 | < 1e-05
A12C U54C | 0.00107 ± 0.00014 | 0.00117 ± 0.00027 | 0.0063 ± 0.0021 | 0.0137 ± 0.0032 | 0.0203 ± 0.0043
A12C A15C A42U U57G C61G C71U | < 1e-05 | < 1e-05 |  | < 1e-05 | 
C11U A36G C50G | 8.31e-05 ± 2.8e-05 |  | 0.000352 ± 0.00014 |  | 4.94e-05 ± 1.5e-05
C11G G44U A48C C50A G59U G62C | < 1e-05 |  |  |  | < 1e-05
C11A G51U A52G U57A G66C C70A | 5.04e-05 ± 1.9e-05 |  |  |  | 5e-05 ± 1.4e-05
C10A G37C G38A A64U U65C | < 1e-05 |  |  | < 1e-05 | 
A12U C50G G59U U69C | 0.000143 ± 4.1e-05 |  |  | 8.19e-05 ± 3e-05 | 0.000187 ± 4.7e-05
G9A C16G | < 1e-05 | < 1e-05 | < 1e-05 | < 1e-05 | 
C11A A14U A15G G29A G44U C61A | < 1e-05 |  | < 1e-05 | < 1e-05 | < 1e-05
C11U C16A G44C | < 1e-05 |  | < 1e-05 |  | 
C10G G32U A53G C58G G60C | < 1e-05 |  |  |  | 0.000266 ± 4.4e-05
C10G A12U U30G | < 1e-05 |  |  |  | 
C10G U69A | < 1e-05 |  |  |  | 
A12G A36C | < 1e-05 | < 1e-05 | < 1e-05 | < 1e-05 | 

Variant | self-cleavage kobs at 40 uM GlcN6P (glucosamine-6-phosphate [1]) [s⁻¹] | self-cleavage kobs at 160 uM GlcN6P (glucosamine-6-phosphate [2]) [s⁻¹] | self-cleavage kobs at 640 uM GlcN6P (glucosamine-6-phosphate [3]) [s⁻¹] | self-cleavage kobs at 2500 uM GlcN6P (glucosamine-6-phosphate [4]) [s⁻¹] | self-cleavage kobs at 10000 uM GlcN6P (glucosamine-6-phosphate [5]) [s⁻¹]
A12U G37C A53C U54A | < 1e-05 |  |  |  | 
C10G A33C | < 1e-05 | < 1e-05 |  | < 1e-05 | < 1e-05
C8U G9C G35U C61G | < 1e-05 |  |  |  | 
G9U A39U | < 1e-05 |  |  |  | 
C10U G13U | < 1e-05 | < 1e-05 | < 1e-05 | < 1e-05 | < 1e-05
A12U G62U C70U | < 1e-05 |  |  |  | < 1e-05
C10G A36G | < 1e-05 |  | < 1e-05 |  | < 1e-05
G9A G35U | < 1e-05 | < 1e-05 | < 1e-05 |  | 
A12G A36G G38C | < 1e-05 |  |  |  | 
C10G C34U G38C A64C C67U | < 1e-05 |  |  |  | < 1e-05
C11G A14G G63U C70A | 9.38e-05 ± 2.9e-05 |  |  | 0.000123 ± 5.4e-05 | 
C11G A39G G63U | < 1e-05 |  |  | < 1e-05 | < 1e-05
C11G G38C | < 1e-05 |  | < 1e-05 | < 1e-05 | 
A12G C50A | < 1e-05 |  |  |  | < 1e-05
A12C U49C U56G C58G | < 1e-05 |  | < 1e-05 |  | < 1e-05
A12U A53G | 0.00255 ± 0.00025 | 0.00496 ± 0.00086 | 0.0163 ± 0.0025 |  | 0.125 ± 0.023
A12U A36U C50A U69G | 9.31e-05 ± 2.3e-05 |  |  | 0.000241 ± 5.7e-05 | 6.54e-05 ± 1.6e-05
G9A C10G G13U A48U G51U G66C | < 1e-05 |  |  |  | 
C11G C58A A64G | < 1e-05 |  |  |  | 
C8U U57G | < 1e-05 |  |  | < 1e-05 | 
G9C G43A | < 1e-05 |  |  |  | < 1e-05
C11U U45G U55A C67G C68A | 6.74e-05 ± 3.3e-05 |  |  |  | 5.91e-05 ± 1.9e-05
G9U G60U C71G | < 1e-05 |  |  |  | 
G9U A52G | < 1e-05 | < 1e-05 |  |  | < 1e-05

Variant | self-cleavage kobs at 40 uM GlcN6P (glucosamine-6-phosphate [1]) [s⁻¹] | self-cleavage kobs at 160 uM GlcN6P (glucosamine-6-phosphate [2]) [s⁻¹] | self-cleavage kobs at 640 uM GlcN6P (glucosamine-6-phosphate [3]) [s⁻¹] | self-cleavage kobs at 2500 uM GlcN6P (glucosamine-6-phosphate [4]) [s⁻¹] | self-cleavage kobs at 10000 uM GlcN6P (glucosamine-6-phosphate [5]) [s⁻¹]
C10A G51C | < 1e-05 |  | < 1e-05 |  | < 1e-05
C11U C50G | 0.000107 ± 2.2e-05 | 0.000271 ± 6.5e-05 | 0.000371 ± 9e-05 | 0.000104 ± 2.1e-05 | 
A12U U30C C68A | < 1e-05 |  |  |  | 
A12G C16A U30G A36G | < 1e-05 |  |  |  | 
C10A U47A | < 1e-05 | < 1e-05 | < 1e-05 |  | 
G9U A36U | < 1e-05 |  | < 1e-05 |  | < 1e-05
G9U A36C | < 1e-05 |  | < 1e-05 | < 1e-05 | < 1e-05
A12U C68U | 0.000326 ± 3.4e-05 | 0.000964 ± 9.8e-05 | 0.00195 ± 0.00021 | 0.0112 ± 0.002 | 0.00957 ± 0.0013
C11U U30A A48G G59C A64G | < 1e-05 |  |  | < 1e-05 | < 1e-05
G9C U56G | < 1e-05 | < 1e-05 | < 1e-05 | < 1e-05 | < 1e-05
G9U G41C A42U G44A | < 1e-05 | < 1e-05 | < 1e-05 | < 1e-05 | 
A12U U47G | 0.000706 ± 0.0001 |  |  | 0.0123 ± 0.0039 | 0.0118 ± 0.002
C11U A12U C34A G66C | < 1e-05 |  | < 1e-05 | < 1e-05 | < 1e-05
A12G C50U G59U G60A | < 1e-05 |  |  |  | < 1e-05
C10A U47G G63C C68G | 9.61e-05 ± 3.8e-05 |  |  |  | 
C11G C34A | < 1e-05 | < 1e-05 |  | < 1e-05 | < 1e-05
C10G G40A | < 1e-05 |  | < 1e-05 | < 1e-05 | < 1e-05
G13A G59C | < 1e-05 | < 1e-05 |  |  | < 1e-05
C10A C16G U31G G38A C61U | < 1e-05 |  |  |  | < 1e-05
A12C C50G | 5.75e-05 ± 1.5e-05 | 0.000244 ± 8.9e-05 | 5.32e-05 ± 1.5e-05 | 8.38e-05 ± 1.9e-05 | 
A12G C16A A36G U69C | < 1e-05 |  |  |  | 
C10A C11U U69G | 4.43e-05 ± 2.1e-05 |  |  |  | 5.88e-05 ± 1.5e-05
A12G G13C A33U G63U | < 1e-05 |  |  |  | < 1e-05
G13A G43C U65G | < 1e-05 |  |  | < 1e-05 | 

Variant | self-cleavage kobs at 40 uM GlcN6P (glucosamine-6-phosphate [1]) [s⁻¹] | self-cleavage kobs at 160 uM GlcN6P (glucosamine-6-phosphate [2]) [s⁻¹] | self-cleavage kobs at 640 uM GlcN6P (glucosamine-6-phosphate [3]) [s⁻¹] | self-cleavage kobs at 2500 uM GlcN6P (glucosamine-6-phosphate [4]) [s⁻¹] | self-cleavage kobs at 10000 uM GlcN6P (glucosamine-6-phosphate [5]) [s⁻¹]
A12G A33G G37U | < 1e-05 |  |  |  | < 1e-05
G9C G13U | < 1e-05 | < 1e-05 | < 1e-05 | < 1e-05 | < 1e-05
C10U U46A U49A U65C C68G | < 1e-05 |  |  |  | < 1e-05
C11G G60U | < 1e-05 | < 1e-05 | < 1e-05 |  | < 1e-05
C10U A33G C70U | < 1e-05 |  |  |  | < 1e-05
C10U G44U U45A G59C C67G | < 1e-05 |  |  |  | < 1e-05
C10G C70U | < 1e-05 |  |  |  | 
C10G C11U | < 1e-05 |  | < 1e-05 |  | 
G9A C58G | < 1e-05 | < 1e-05 | < 1e-05 | < 1e-05 | 
G9C C70U | < 1e-05 | < 1e-05 | < 1e-05 | < 1e-05 | < 1e-05
C10U G13A C67A | < 1e-05 |  | < 1e-05 |  | < 1e-05
G9C G41C | < 1e-05 | < 1e-05 | < 1e-05 | < 1e-05 | < 1e-05
G9A U47C | < 1e-05 | < 1e-05 | < 1e-05 | < 1e-05 | 
C10G G43U U65A | < 1e-05 |  |  | < 1e-05 | 
G13A G44C C61A U69G | < 1e-05 |  |  |  | 
C10A U49A | < 1e-05 | < 1e-05 | < 1e-05 |  | 
C8U U30G A36G C68U | < 1e-05 | < 1e-05 |  |  | 
C11G C50A A52U G63A | < 1e-05 |  |  |  | < 1e-05
C10G A14C C70U | < 1e-05 |  |  |  | 
A12G A15G A53C C67G | < 1e-05 |  |  |  | 
C10U G32U A64C | < 1e-05 |  |  |  | < 1e-05
C10A A36U | < 1e-05 | < 1e-05 | < 1e-05 | < 1e-05 | < 1e-05
